Target: ASK-1 + Nef (Nef and ASK1g co-transfected in ATCC CRL-1573 cells) (HIV-1; human, UniProt Q99683 1-1050)
Assay: cell-based or functional assay

Sequence of ASK-1 + Nef (Nef and ASK1g co-transfected in ATCC CRL-1573 cells) (Q99683 1-1050): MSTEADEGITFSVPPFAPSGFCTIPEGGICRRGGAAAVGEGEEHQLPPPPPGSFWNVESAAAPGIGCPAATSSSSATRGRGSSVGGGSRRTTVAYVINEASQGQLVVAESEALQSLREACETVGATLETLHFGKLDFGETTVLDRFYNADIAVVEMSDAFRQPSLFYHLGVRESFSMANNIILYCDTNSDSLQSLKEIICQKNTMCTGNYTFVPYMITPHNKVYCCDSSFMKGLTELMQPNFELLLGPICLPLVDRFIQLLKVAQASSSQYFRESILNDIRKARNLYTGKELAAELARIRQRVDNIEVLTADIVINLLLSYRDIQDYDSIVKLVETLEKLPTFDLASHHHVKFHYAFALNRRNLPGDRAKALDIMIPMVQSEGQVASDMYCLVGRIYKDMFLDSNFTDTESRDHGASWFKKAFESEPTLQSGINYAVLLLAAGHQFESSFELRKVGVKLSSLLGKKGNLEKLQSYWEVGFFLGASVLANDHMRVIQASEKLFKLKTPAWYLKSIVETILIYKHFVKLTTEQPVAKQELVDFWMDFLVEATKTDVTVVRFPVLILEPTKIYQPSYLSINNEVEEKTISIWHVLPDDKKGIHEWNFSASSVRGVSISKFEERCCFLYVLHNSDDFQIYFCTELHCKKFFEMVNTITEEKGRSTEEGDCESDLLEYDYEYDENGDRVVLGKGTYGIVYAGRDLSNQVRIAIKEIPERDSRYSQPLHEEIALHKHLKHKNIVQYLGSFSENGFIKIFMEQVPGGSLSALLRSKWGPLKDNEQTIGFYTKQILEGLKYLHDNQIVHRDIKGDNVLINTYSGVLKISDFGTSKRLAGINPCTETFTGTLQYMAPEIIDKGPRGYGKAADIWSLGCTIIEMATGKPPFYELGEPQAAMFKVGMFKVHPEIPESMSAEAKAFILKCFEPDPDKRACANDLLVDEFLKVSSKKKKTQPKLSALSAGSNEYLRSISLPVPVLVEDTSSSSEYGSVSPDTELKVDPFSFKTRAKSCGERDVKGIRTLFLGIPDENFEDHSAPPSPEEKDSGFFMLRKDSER

TPGPGVRYP [Peptide-1]
% of Annexin V cells means apoptotic cells: 22.4%

GENNCLLH [Peptide-2]
% of Annexin V cells means apoptotic cells: 25%

DEVGEANN [Peptide-3]
% of Annexin V cells means apoptotic cells: 40.4%

LHGMEDPE [Peptide-4]
% of Annexin V cells means apoptotic cells: 23%

PVRPQVPLRP [Peptide-5]
% of Annexin V cells means apoptotic cells: 22.4%

Source: patent US20150182581A1 (COUNCIL OF SCIENTIFIC AND INDUSTRIAL RESEARCH, published 2015)
